The text below walks through data of patent publication US7930107.

In assay [1] the target is GST-fused human V158 FcγRIIIa (extracellular region) (human) (UniProt P08637). In words: AlphaScreen competition with biotinylated WT AC10. (In general: Alpha assays give light when donor and acceptor beads are brought close together.)
Assay [2] shares this target. In words: SPR, GST-FcγRIIIa V158 on chip. (Surface plasmon resonance follows binding to a sensor surface in real time, without labels.)

By IC50 is commonly meant the midpoint of a concentration-inhibition curve. Lower therefore signals greater potency in that assay. A word on the Kd: it is the equilibrium constant for the complex coming apart. Higher therefore signals lower affinity.

Chain of GST-fused human V158 FcγRIIIa (extracellular region) (human) (P08637 17-208 F176V): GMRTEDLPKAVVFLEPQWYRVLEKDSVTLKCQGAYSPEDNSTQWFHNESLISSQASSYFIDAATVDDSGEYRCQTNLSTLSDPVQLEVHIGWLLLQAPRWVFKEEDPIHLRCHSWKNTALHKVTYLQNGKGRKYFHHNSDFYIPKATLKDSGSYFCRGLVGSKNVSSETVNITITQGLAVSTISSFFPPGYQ

As for WT AC10 antibody (L0/H0), the IC50 in assay [1] is 0.0872 µM. Besides, in assay [2], the Kd was found to be 0.0186 µM.
